From the DeepSol protein solubility set

Test: soluble on expression in E. coli; label from the status in PepcDB or PDB records

Q: For “MLVEFDNPPLCMKSNKDGSRLVVGFVDGSIRFYDTQQHEEEFQEIWKFQTKSSIRGVDLDEHKKRVYAVTKNRSLCVFDIDTGKRVRCILKCHRSVPTAICTLPPTALKSQQLATADESGEVKTWNLDPEVASENANIRKWQEQDEDINDLKVDVKSNLLATSSDGTLGAYDLRKAKLKMRSELMHSELYSVCGTNRSVYVGGEDGYVEVFNLNEYGNLLERVESGFEMGVNGIVELRSGLLGLTSQGSNRMRLLNVQPSKRLGYAGYHGDEKSDDDGIDAITISTDKSTVFTMISMSCTIKKWDMGPIIDEIPILRAQDAKSKKMRKTEGFFDGLVGPKNDSDSDDDDEPKSKKRRNDEDSDEEIDEEEQEEDDEEEEEDSD”, which “soluble on expression in E. coli” value is on record?
A: not soluble

Q: For “MGSDKIHHHHHHSSDYFTTNPEVLEAIGGKVPVTINGKFPEKYFKKNATVEVTPVLRWKGGEAKGQPAVFQGEKVEGNNQTIAYKAGGSYTMKASFDYVPEMANSELYLDFKITKGKKSYTIPSVKIADGVIATSELPTAASSNASYANDAFQRIIKDAQTANIMFLIQQANLRNSELNSDDIKEFHKKVAEINADTKNYKLNNIEISAYASPDGGVELNTGLAENREANTEKYMERQLKKGKIDTNLDAKYTAQDWEGFQELVSKSNLQDKDLILRVLSMYNDPEQREAEIKNISSVYKTLADEILPQLRRARLTANYDIIGRSDDEINEAFNSDPKVLSVEELLYAATLTNDNARKEAIFTKTTQLYPNDFRAYNNLGELAFAAGDAAKAESYFKQAASKNANAPEVNANLGLCELVKGNVAAAETYLGKATGANAAGEALGNLYIKQGQYDRAVNSFGDAKTNSAAQAQILAKDYNKAKATLSAIKNPDAMTDYLMAIVGARTNNASLVSSSIKSAIAKDPSMAEKAANDREFAKYADAIK”, which “soluble on expression in E. coli” value is on record?
A: not soluble

Q: For “MGSDKIHHHHHHMSEAPHLTFDLDTPGVSTGHLVVPKGADCEALSLPVFSCNRGEGPSLLITGGNHGNELQGPILARRLVKWLPEAQRCGRIIIVPEINPLAVQAWTRNTPIDGKNLNRVFPGRSDGSVSERIADAISRLLLPVVDTVLDLHSFGPTWDCAPSIISHPIADIDQMTKTVSISKAFKLPVTLLWEHNETDGMFDTLVHRQGKTFICTEFGGGVVSAEALTIYEAGVRNGLIALGLVKGKAEYPTFRQQKTGQTLETTSSDQLKSPSPGIFEPRCSVMDEVEQGDVVGVLHPMGSLSAASIDIRAQSKSTVFAIRSAMYVQGNEEVAILARPLAR”, which “soluble on expression in E. coli” value is on record?
A: not soluble

Q: Which “soluble on expression in E. coli” value does the source give for “MGSDKIHHHHHHMKDVARDIYLSRDKIDEIKRKRFRSTLKYVYDNSPFYRRLFKESGVDIDSIKEPADIAKLPFTTKQNLRESYPLKMACVEKEKIVRIQMSGGTTGQPVIIPYTRHDVEQWKEMLLRDFYLAGITSKDVIQITPAFGLWNGGFGFHFAADAIDAFVIPIGAGNTRNQVRFMVDFGTTVLCATASYPLRIAEVAEEMGYEPAELPVQKMLLGAEPWSEEMRRQIEKTFNCKAFDIPGLTEMGGVGTVGFECPSRNGLHIWEDNYIVEIVDPETGEVLEDGEEGEIVYTSLNREAMPLIRYRSGEVSAVVSREKCECGIEHMTIKRIRGRTDDMVIYKGVKFYPSDVEQILASYGVRHYRIEVGEGIRVIFEGENGLARKVIKDIKEFLGFSPRIEVVQPGSLERFEGKAKRLFRG” here?
A: not soluble

Q: With “MAHHHHHHMKKAKGSMKRLREGAENGTGGRNSSMKRQKGSTTGALSFAITNNTVTLERKARRQPKVAERCEDDDDEEDVELSKAVQAQTLSFLQHLNSKSSKTFWELRDVAQGKLSAASATTATSSSSQLPSSSRTKAAKGNAKGAKKLADDGEELWRVGGPYISGDQADDTDESERECGRTSDSELQSSTSSSEPSWVTDSSEEEDGGGSDDEAESAPVAAGATSRRSAAEPPKRGGGGGRLFQGGGDGVWDED” as the sequence, how does the “soluble on expression in E. coli” value read?
A: soluble

Q: With “AVGTPITISVPSLPYANSASEIVLSQLRDIGFDVRLESTEFPSVWLSKVYKAKDYDMSVVAHVEARDIPNLFGNPDYYLGFDDEQVRELLAQADSGDADSYVSTMKKVVNRIMDQAGADTLFNLPNIVVTQPDVSGVPTNLVADGLVVSNISRSED” as the sequence, how does the “soluble on expression in E. coli” value read?
A: not soluble

Q: With “MGHHHHHHSHMESLVVGDIAELRPNQGTLSLFTNEAGGILDDLIVTNTSEGHLYVVSNAGCWEKDLALMQDKVRELQNQGRDVGLEVLDNALLALQGPTAAQVLQAGVADDLRKLPFMTSAVMEVFGVSGCRVTRCGYTGEDGVEISVPVAGAVHLATAILKNPEVKLAGLAARDSLRLEAGLCLYGNDIDEHTTPVEGSLSWTLGKRRRAAMDFPGAKVIVPQLKGRVQRRRVGLMCEGAPMRAHSPILNMEGTKIGTVTSGCPSPSLKKNVAMGYVPCEYSRPGTMLLVELPSGPCF” as the sequence, how does the “soluble on expression in E. coli” value read?
A: not soluble

Q: Which “soluble on expression in E. coli” value does the source give for “SASNYPAYMDNYLKEVINQVEEETGYNLLTTGMDVYTNVDQEAQKHLWDIYNTDEYVAYPDDELQVASTIVDVSNGKVIAQLGARHQSSNVSFGINQAVETNRDWGSTMKPITDYAPALEYGVYDSTATIVHDEPYNYPGTNTPVYNWDRGYFGNITLQYALQQSRNVPAVETLNKVGLNRAKTFLNGLGIDYPSIHYSNAISSNTTESDKKYGASSEKMAAAYAAFANGGTYYKPMYIHKVVFSDGSEKEFSNVGTRAMKETTAYMMTDMMKTVLSYGTGQNAYLAWLPQAGKTGTSNYTDEEIENHIKTSQFVAPDELFAGYTRKYSMAVWTGYSNRLTPLVGNGLTVAAKVYRSMMTYLSEGSNPEDWNIPEGLYRNGEFVFKNGAR” here?
A: soluble

Q: Which “soluble on expression in E. coli” value does the source give for “APTSSNDTGKTVVAVTACPTGIAHTYMAAEKLQETANKLGVRIKVETNGSRGVENRLTDKEIAEADGVIIAADVQVDMPRFDGKHLIAKPVAAGIHKPEELIKEAISGNAPVYKAESGSEATEST” here?
A: not soluble

Q: For “MGSDKIHHHHHHMNILVTGANGFVGQTLCPALERAGLRAVRAVRISTRYEEISVGEVDGETSWSRVFDEGIDGVVHLAAKVPLAEKEKEAADSYHRVNTLGTVRLARECAARGIRRFVFISTVKVLGEECDKPFQADDSAVPSDAYAISKWEAEQSLRQISAETGMEVVILRPPLVYGPGVGGNFLRLLQMVDRRIPLPLGAIHNRRSLIYLGNLVDIIRLCLTHPDAASKTFMVSDGEDVSTPGLIRRIGSVLGHGSFLLPVPAAWMRRVGDLLGKRSAIDRLTGSLSVDSMPVQKELGWLPPYGMQAGLALTVQWYRQHKPETKS”, which “soluble on expression in E. coli” value is on record?
A: not soluble

Q: For “MTNNSTKVCVLLATYNGTKWCLDQVKSILNQEDVNLEVFVSDDLSSDSTTDLLALLNDSRIHILASSYKFGSACQNFFRLVRDVDFSEYDYIAFADQDDLWNPNKLSYSIEQLNAHCADAFSSNVTAFWPDGRARLIVKDQPQREWDFLFESAGPGCTFVLTKKLACNLANFLHNNYEKTKGVALHDWFTYAFARSNSYSWWIDSQPTMMYRQHESNEFGVNSGVTAALSRFRKTSNGWYRNQVILIGDLVGAEDSWPIKRMRRFSLLDRMLLLFNVFAFRRSFRDRIALFFLLLLPQKKLEHHHHHH”, which “soluble on expression in E. coli” value is on record?
A: soluble

Q: Which “soluble on expression in E. coli” value does the source give for “MEQVVIVDAIRTPMGRSKGGAFRNVRAEDLSAHLMRSLLARNPSLTAATLDDIYWGCVQQTLEQGFNIARNAALLAEIPHSVPAVTVNRLCGSSMQALHDAARMIMTGDAQVCLVGGVEHMGHVPMSHGVDFHPGLSRNVAKAAGMMGLTAEMLSRLHGISREMQDQFAARSHARAWAATQSGAFKTEIIPTGGHDADGVLKQFNYDEVIRPETTVEALSTLRPAFDPVSGTVTAGTSSALSDGAAAMLVMSESRARELGLKPRARIRSMAVVGCDPSIMGYGPVPASKLALKKAGLSASDIDVFEMNEAFAAQILPCIKDLGLMEQIDEKINLNGGAIALGHPLGCSGARISTTLINLMERKDAQFGLATMCIGLGQGIATVFERV” here?
A: soluble

Q: For “MPPLFHPHLVNGPFDDPGLYVDFLFERRAVLFDLGDTAPLPPRKVLRLSHIFVSHTHVDHFIGFDRVVRLCLGREKRLHLLGPPGFVDQVAARLAGYTWNLVETFPTDFTLAAAELHPDGSVHSAEFHCLAAFSRDNERRDRAAGGVLLDEEAFRVRSVFLDHGIPCLAFALEEKNHVHILKNRLREAGLPTGAWLAELKRAILGGRDDGEPFRAWWRDGGKECEAWFPLGELRERFTKTVAGQKIVYVTDAAPTPENRRLIVELAAGADYLFIEAPFLDEERERAGDRCHLTARIAGELGRDAGVARVVPFHFSPRYMGRESLLRDEVERAFRGLEHHHHHH”, which “soluble on expression in E. coli” value is on record?
A: not soluble

Q: For “MSVEEVSKKFEENVSVDDTTATPKTVLSDSAHFDVKHPLNTKWTLWYTKPAVDKSESWSDLLRPVTSFQTVEEFWAIIQNIPEPHELPLKSDYHVFRNDVRPEWEDEANAKGGKWSFQLCGKGADIDELWLCTLLAVIGETIDEDDSQINGVVLSIRKGGNKFALWTKCEDKEPLLRIGGKFKQVLKLTDDGHLEFFPHCSANGRHPQPSITL”, which “soluble on expression in E. coli” value is on record?
A: soluble

Q: With “MSLGKKLKIFFIDDDIALGHICTRIMQEEGYEVLYQTSLNGAKACIVETHPDMIVLDVEIGNKNGIEAVPELKAIAPNTPILFISSHTNSQLVVQALSAGAVAYLKKPLEIDELIAYIKRYAISHPYQIKIGSLLLDTDTQLLCTKELRVIKQLSEAEYKLLKLLVAYKEQLVERRQIEEELWGKVNGNEQGINNLISKLRKYLSIDPTIELVTIPRNGYKLSVNLSEGHHHHHH” as the sequence, how does the “soluble on expression in E. coli” value read?
A: soluble

Q: Which “soluble on expression in E. coli” value does the source give for “MSLRKLYTKELSVTGSAINHHRIFDSSAHFKGALTIKILPENTAMFNPLHESYCLPMDTNLFKINSIDVPIRINSTEEIEYIELEYRDLYTNSVELRSLSKKDFKIIDNPKSFLKKDQSVLKSHSNDFEEGSTIRYLAVTLQDIGFYQIKKIVDSKKLNLKIHQSHLVVPYCPIASITGTGSNDRCIGDSDNVSFEIQGVPPMKLAYSKIVNGQTFSYVDSSLQPEYFESPLQSSKSKQSFTQGELNDLKWGRNQPVNINLDSSITQDGKFAYKIDKITDGLGNVVDFTSLPEELKKREGHHHHHH” here?
A: soluble

Q: Which “soluble on expression in E. coli” value does the source give for “MGSDKIHHHHHHMKVGVALSGGVDSAVALYLLLKEGHEVKAFHMKTKEDEFFIKKEIKKKVCCSPSDTADAMRIAHFLGVEIEIVDVKEIFREKVIEPFKRDLLKGLTPNPCAHCNRFVKFGYLMDYVLNQGFDAFASGHYARIEFSEKYGRKVIKKGVDLKKDQSYFLARIEPWRIERLIFPNGIYTKEEIRKIAEEAGIHVAKKQESQDVCFIPDGSIENFLKDEGITLKDGDIITPEGEVVGRHFGYPLYTIGQRKGFKIEKFGRRYYVRGKIPEKNVVVVSDLEDVFFSGLIAEDPVWHVEVPEEFRCVCRVRKKSEEAPAVVKVKDNEVEVSFEKKVFAVTPGQIAAFYDGDTLLGGAIIKEGIR” here?
A: not soluble

Q: For “MSLNYNAPHRHAVIELSQSAVVHNLKVIKENTHAKEIMAVLKANAFSHGLPEMASLSITAGATRFGMAMLDEALILRDLGYIQPIDVLGLTDPRYARLAAERNITLAFSTKESIKAAAEQLAGTGLTLKVSLPVDTGLNRIGFKSREDLVAAIQEVSAQDTLIFQSMWTHFATADTPNVDYVDFQISEWQRLTHDLPVEPNEKHFANTGIATWYPEKINTDIVRLGIGLFGINGSVPIMSMPFELIPALSLKAKVVNSKPLKKGDAVGYGAEYHAPNDGYLITIPIGHSDGYPFNGSGMRALVADGQIGHIVGGVAMDQSMILVTNPVAVGTTVTLIGRVGDQSITMQDLAEHTQSSIVALMNDFAPRLQRIIVSEGHHHHHH”, which “soluble on expression in E. coli” value is on record?
A: not soluble

Q: With “RKLHAEELLRLAMAHLRNQGKPVRIVDIAAGHGRYILESLRGVEPLPESILLRDYSDINVRDGSLLIEQKDLEDIARFVKGDAFDRNDLATLDPKPTLAVVSGLYELFSSNQMVGDSLAGLAAAVEPGGYLVYTGQPWHPQLELIARALTSHREGQAWVMRRRSQSEMDQLVEAAGFRKITQRVDEWGIFTVSLAQRIQ” as the sequence, how does the “soluble on expression in E. coli” value read?
A: not soluble
